Reference: patent US20240216536

Key:
[1] = molecular target: T1, His-S5A substrate (E6AP Ubiquitin Ligase Kit-S5a Substrate, Boston Biochem #K-230), P55036
T1 chain: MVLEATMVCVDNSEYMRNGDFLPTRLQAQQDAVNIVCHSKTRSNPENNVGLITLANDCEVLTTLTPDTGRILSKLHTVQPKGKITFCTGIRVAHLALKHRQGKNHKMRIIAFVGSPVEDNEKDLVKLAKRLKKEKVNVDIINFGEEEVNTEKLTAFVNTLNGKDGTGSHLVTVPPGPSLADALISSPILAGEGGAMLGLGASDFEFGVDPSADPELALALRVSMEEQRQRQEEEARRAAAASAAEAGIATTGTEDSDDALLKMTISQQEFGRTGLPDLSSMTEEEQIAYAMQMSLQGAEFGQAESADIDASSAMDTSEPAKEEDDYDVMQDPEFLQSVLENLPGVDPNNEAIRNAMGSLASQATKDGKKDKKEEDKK

B1: rat UBE3A protein (endogenous, from wild type rat cerebrospinal fluid and hippocampal dialysate) (protein)
chain: MATACKRSSGESQSEDIEASRMKRAAAKHLIERYYHQLTEGCGNEACTNEFCASCPTFLRMDNNAAAIKALELYKINAKLCDPHPSKKGASSAYLENSKGASNNSEIKMNKKEEFKEVDYLTEEKVYEIYEFCREREDYSPLIRVIGRIFSSAEALVQSFRKVKQHTKEELKSLQEKDEDKDEDEKEKAACSAAAMEEDSEASSSRMGDSSQGDNNVQKLGPDDVTVDIDAIRRVYSSLLSDEKIETAFLNALVYLSPNVECDLTYHNVYTRDPNYLNLFIIVMENRNLHSPEYLEMALPLFCKAMSKLPLAAQGKLIRLWSKYSADQIRRMMETFQQLITYKVISNEFNSRNLVNDDDAIVAASKCLKMVYYANVVGGDVDTNHNEEDDEEPIPESSELTLQELLGEERRNKKGPRVDPLETEIGVKTLDCRKPLISFEEFINEPLNDVLEMDKDYTFFKVETENKFSFMTCPFILNAVTKNLGLYYDNRIRMYSERRITVLYSLVQGQQLNPYLRLKVRRDHIIDDALVRLEMIAMENPADLKKQLYVEFEGEQGVDEGGVSKEFFQLVVEEIFNPDIGMFTYDEATRLFWFNPSSFETEGQFTLIGIVLGLAIYNNCILDVHFPMVVYRKLMGKKGTFCDLGDSHPILYQSLKDLLEYEGNVEDDMMITFQISQTDLFGNPMMYDLKENGDKIPITNENRKEFVSLYSDYILNKSVEKQFKAFRRGFHMVTNESPLKYLFRPEEIELLICGSRNLDFQALEETTEYDGGYTRESVVIREFWEIVHSFTDEQKRLFLQFTTGTDRAPVGGLGKLKMIIAKNGPDTERLPTSHTCFNVLLLPEYSSKEKLKERLLKAITYAKGFGML
ubiquitination assay western blot (self-ubiquitination of UBE3A): the UBE3A protein present in both the CSF and hippocampal dialysate were active in ubiquitinating both the S5A substrate and UBE3A
ubiquitination assay western blot (S5A band shift over time) [1]: the UBE3A protein present in both the CSF and hippocampal dialysate were active in ubiquitinating both the S5A substrate and UBE3A
ubiquitination assay western blot after immuno-depletion of UBE3A (S5A band intensity) [1]: With UBE3A protein immuno-precipitated, UBE3A protein was not detected and the S5A band intensity remained unchanged over time
